Results as given in paper PMC9482650, “Quantitative fragmentomics allow affinity mapping of interactomes” (Nature Communications, 2022).

T1: APBA1_2, Q02410
T1 sequence (Q02410 742-832, limits assumed, looked up): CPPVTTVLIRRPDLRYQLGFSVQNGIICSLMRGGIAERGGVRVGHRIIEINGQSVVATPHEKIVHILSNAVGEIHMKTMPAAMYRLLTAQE

T2: CARD11, Q9BXL7
T2 sequence (Q9BXL7 662-765, limits assumed, looked up): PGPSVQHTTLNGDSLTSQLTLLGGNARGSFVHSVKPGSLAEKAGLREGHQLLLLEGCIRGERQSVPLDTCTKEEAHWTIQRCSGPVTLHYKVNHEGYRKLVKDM

T3: LRRC7, Q96NW7
T3 sequence (Q96NW7 1440-1537, limits assumed, looked up): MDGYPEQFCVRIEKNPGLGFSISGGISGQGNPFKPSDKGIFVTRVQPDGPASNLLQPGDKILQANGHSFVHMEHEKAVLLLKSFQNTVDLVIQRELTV

T4: MPP6, Q9NZW5
T4 sequence (Q9NZW5 125-219, limits assumed, looked up): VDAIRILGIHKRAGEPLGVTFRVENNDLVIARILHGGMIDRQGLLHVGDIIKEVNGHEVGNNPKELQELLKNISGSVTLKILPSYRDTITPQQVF

T5: NHERF3_1, Q5T2W1
T5 sequence (Q5T2W1 4-100, limits assumed, looked up): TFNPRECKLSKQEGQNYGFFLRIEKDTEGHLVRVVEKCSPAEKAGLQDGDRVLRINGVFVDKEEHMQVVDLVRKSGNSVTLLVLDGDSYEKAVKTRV

T6: NHERF3_3, Q5T2W1
T6 sequence (Q5T2W1 238-333, limits assumed, looked up): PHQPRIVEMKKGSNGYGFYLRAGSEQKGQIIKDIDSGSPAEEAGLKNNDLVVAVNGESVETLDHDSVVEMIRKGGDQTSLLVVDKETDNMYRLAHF

T7: PARD3B_1, Q8TEW8
T7 sequence (Q8TEW8 196-299, limits assumed, looked up): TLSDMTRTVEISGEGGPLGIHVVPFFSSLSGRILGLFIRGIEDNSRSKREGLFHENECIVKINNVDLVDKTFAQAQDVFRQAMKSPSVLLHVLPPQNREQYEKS

T8: SNTG1, Q9NSN8
T8 sequence (Q9NSN8 52-150, limits assumed, looked up): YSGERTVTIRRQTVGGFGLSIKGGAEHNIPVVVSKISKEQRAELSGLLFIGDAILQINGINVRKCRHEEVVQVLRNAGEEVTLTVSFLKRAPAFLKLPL

T9: SNTG2, Q9NY99
T9 sequence (Q9NY99 68-166, limits assumed, looked up): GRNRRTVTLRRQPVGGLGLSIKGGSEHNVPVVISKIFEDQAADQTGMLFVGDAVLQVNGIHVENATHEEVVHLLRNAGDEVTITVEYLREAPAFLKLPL

B1: PLCB2, Q00722 (peptide)
chain: AKADAQESRL
B2: FZD1, Q9UP38 (peptide)
chain: TNSKQGETTV

molecular target: AHNAK1, Q09666; assay: holdup assay; set-up: key: below the threshold = too weak to quantify, mostly under pKd 3.1 to 4; settings: plain residues with an end cap or a label only (N-terminal biotin on a linker: ado-ado)
Sequence (Q09666 4-100): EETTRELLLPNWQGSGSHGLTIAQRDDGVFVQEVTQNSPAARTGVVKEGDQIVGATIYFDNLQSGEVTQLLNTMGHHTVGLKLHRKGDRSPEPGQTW

pKd	Binder
below the threshold	B1
below the threshold	B2

molecular target: T1, APBA1_2, Q02410; assay: holdup assay; set-up: key: below the threshold = too weak to quantify, mostly under pKd 3.1 to 4; settings: plain residues with an end cap or a label only (N-terminal biotin on a linker: ado-ado)

pKd	Binder
below the threshold	B1
3.74	B2

molecular target: T2, CARD11, Q9BXL7; assay: holdup assay; set-up: key: below the threshold = too weak to quantify, mostly under pKd 3.1 to 4; settings: plain residues with an end cap or a label only (N-terminal biotin on a linker: ado-ado)

pKd	Binder
below the threshold	B1
below the threshold	B2

molecular target: DLG1_3, Q12959; assay: holdup assay; set-up: key: below the threshold = too weak to quantify, mostly under pKd 3.1 to 4; settings: plain residues with an end cap or a label only (N-terminal biotin on a linker: ado-ado)
Sequence (Q12959 457-571): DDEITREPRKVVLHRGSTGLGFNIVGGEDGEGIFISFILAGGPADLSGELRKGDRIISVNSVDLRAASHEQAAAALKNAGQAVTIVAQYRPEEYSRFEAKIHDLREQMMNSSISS

pKd	Binder
below the threshold	B1
4.13	B2

molecular target: DLG2_2, Q15700; assay: holdup assay; set-up: key: below the threshold = too weak to quantify, mostly under pKd 3.1 to 4; settings: plain residues with an end cap or a label only (N-terminal biotin on a linker: ado-ado)
Sequence (Q15700 189-283): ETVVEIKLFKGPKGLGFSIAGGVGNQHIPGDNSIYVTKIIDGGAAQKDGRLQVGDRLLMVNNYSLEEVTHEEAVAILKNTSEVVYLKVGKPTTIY

pKd	Binder
below the threshold	B1
4.82	B2

molecular target: DLG5_1, Q8TDM6; assay: holdup assay; set-up: key: below the threshold = too weak to quantify, mostly under pKd 3.1 to 4; settings: plain residues with an end cap or a label only (N-terminal biotin on a linker: ado-ado)
Sequence (Q8TDM6 617-713): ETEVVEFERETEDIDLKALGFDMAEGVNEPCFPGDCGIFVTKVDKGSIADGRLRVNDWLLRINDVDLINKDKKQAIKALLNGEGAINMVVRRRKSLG

pKd	Binder
below the threshold	B1
3.91	B2

molecular target: GRASP, Q7Z6J2; assay: holdup assay; set-up: key: below the threshold = too weak to quantify, mostly under pKd 3.1 to 4; settings: plain residues with an end cap or a label only (N-terminal biotin on a linker: ado-ado)
Sequence (Q7Z6J2 96-193): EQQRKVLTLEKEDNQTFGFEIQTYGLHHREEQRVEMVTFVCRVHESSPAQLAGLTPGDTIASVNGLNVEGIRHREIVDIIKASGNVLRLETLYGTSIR

pKd	Binder
below the threshold	B1
below the threshold	B2

molecular target: GRIP2_6, Q9C0E4; assay: holdup assay; set-up: key: below the threshold = too weak to quantify, mostly under pKd 3.1 to 4; settings: plain residues with an end cap or a label only (N-terminal biotin on a linker: ado-ado)
Sequence (Q9C0E4 648-740): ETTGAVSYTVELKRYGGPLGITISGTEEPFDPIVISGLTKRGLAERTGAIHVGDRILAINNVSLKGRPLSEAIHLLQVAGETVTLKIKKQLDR

pKd	Binder
below the threshold	B1
below the threshold	B2

molecular target: IL16_1, Q14005; assay: holdup assay; set-up: key: below the threshold = too weak to quantify, mostly under pKd 3.1 to 4; settings: plain residues with an end cap or a label only (N-terminal biotin on a linker: ado-ado)
Sequence (Q14005 210-306): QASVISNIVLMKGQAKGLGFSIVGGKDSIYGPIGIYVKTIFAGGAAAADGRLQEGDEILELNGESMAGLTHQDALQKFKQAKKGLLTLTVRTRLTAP

pKd	Binder
3.94	B1
below the threshold	B2

molecular target: IL16_4, Q14005; assay: holdup assay; set-up: key: below the threshold = too weak to quantify, mostly under pKd 3.1 to 4; settings: plain residues with an end cap or a label only (N-terminal biotin on a linker: ado-ado)
Sequence (Q14005 1229-1329): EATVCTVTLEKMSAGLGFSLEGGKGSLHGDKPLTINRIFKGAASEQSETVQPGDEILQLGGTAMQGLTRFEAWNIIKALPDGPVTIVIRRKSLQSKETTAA

pKd	Binder
3.61	B1
3.68	B2

molecular target: Inadl_3, Q8NI35; assay: holdup assay; set-up: key: below the threshold = too weak to quantify, mostly under pKd 3.1 to 4; settings: plain residues with an end cap or a label only (N-terminal biotin on a linker: ado-ado)
Sequence (Q8NI35 359-469): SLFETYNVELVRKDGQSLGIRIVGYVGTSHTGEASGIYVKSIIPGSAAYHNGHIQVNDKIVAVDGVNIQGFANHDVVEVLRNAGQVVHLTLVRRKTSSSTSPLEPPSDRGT

pKd	Binder
below the threshold	B1
below the threshold	B2

molecular target: LDB3, O75112; assay: holdup assay; set-up: key: below the threshold = too weak to quantify, mostly under pKd 3.1 to 4; settings: plain residues with an end cap or a label only (N-terminal biotin on a linker: ado-ado)
Sequence (O75112 1-94): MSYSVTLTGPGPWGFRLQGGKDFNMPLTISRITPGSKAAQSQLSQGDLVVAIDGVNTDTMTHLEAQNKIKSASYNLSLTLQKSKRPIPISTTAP

pKd	Binder
below the threshold	B1
below the threshold	B2

molecular target: LIMK2, P53671; assay: holdup assay; set-up: key: below the threshold = too weak to quantify, mostly under pKd 3.1 to 4; settings: plain residues with an end cap or a label only (N-terminal biotin on a linker: ado-ado)
Sequence (P53671 143-248): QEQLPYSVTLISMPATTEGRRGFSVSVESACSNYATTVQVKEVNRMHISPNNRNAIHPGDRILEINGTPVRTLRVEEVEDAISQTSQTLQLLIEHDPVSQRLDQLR

pKd	Binder
below the threshold	B1
below the threshold	B2

molecular target: LNX1_1, Q8TBB1; assay: holdup assay; set-up: key: below the threshold = too weak to quantify, mostly under pKd 3.1 to 4; settings: plain residues with an end cap or a label only (N-terminal biotin on a linker: ado-ado)
Sequence (Q8TBB1 261-371): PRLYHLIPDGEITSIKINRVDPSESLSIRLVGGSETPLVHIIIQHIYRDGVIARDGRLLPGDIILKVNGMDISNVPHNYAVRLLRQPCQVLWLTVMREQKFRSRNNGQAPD

pKd	Binder
3.58	B1
below the threshold	B2

molecular target: T3, LRRC7, Q96NW7; assay: holdup assay; set-up: key: below the threshold = too weak to quantify, mostly under pKd 3.1 to 4; settings: plain residues with an end cap or a label only (N-terminal biotin on a linker: ado-ado)

pKd	Binder
below the threshold	B1
below the threshold	B2

molecular target: MAGI2_3, Q86UL8; assay: holdup assay; set-up: key: below the threshold = too weak to quantify, mostly under pKd 3.1 to 4; settings: plain residues with an end cap or a label only (N-terminal biotin on a linker: ado-ado)
Sequence (Q86UL8 600-682): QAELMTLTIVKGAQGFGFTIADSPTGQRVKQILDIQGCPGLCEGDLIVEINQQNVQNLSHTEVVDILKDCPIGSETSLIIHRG

pKd	Binder
3.51	B1
3.83	B2

molecular target: T4, MPP6, Q9NZW5; assay: holdup assay; set-up: key: below the threshold = too weak to quantify, mostly under pKd 3.1 to 4; settings: plain residues with an end cap or a label only (N-terminal biotin on a linker: ado-ado)

pKd	Binder
below the threshold	B1
below the threshold	B2

molecular target: T5, NHERF3_1, Q5T2W1; assay: holdup assay; set-up: key: below the threshold = too weak to quantify, mostly under pKd 3.1 to 4; settings: plain residues with an end cap or a label only (N-terminal biotin on a linker: ado-ado)

pKd	Binder
5.58	B1
below the threshold	B2

molecular target: T6, NHERF3_3, Q5T2W1; assay: holdup assay; set-up: key: below the threshold = too weak to quantify, mostly under pKd 3.1 to 4; settings: plain residues with an end cap or a label only (N-terminal biotin on a linker: ado-ado)

pKd	Binder
3.85	B1
below the threshold	B2

molecular target: NHERF4_4, Q86UT5; assay: holdup assay; set-up: key: below the threshold = too weak to quantify, mostly under pKd 3.1 to 4; settings: plain residues with an end cap or a label only (N-terminal biotin on a linker: ado-ado)
Sequence (Q86UT5 464-550): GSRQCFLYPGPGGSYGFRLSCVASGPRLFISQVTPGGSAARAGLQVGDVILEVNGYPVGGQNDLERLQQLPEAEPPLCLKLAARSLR

pKd	Binder
below the threshold	B1
3.95	B2

molecular target: T7, PARD3B_1, Q8TEW8; assay: holdup assay; set-up: key: below the threshold = too weak to quantify, mostly under pKd 3.1 to 4; settings: plain residues with an end cap or a label only (N-terminal biotin on a linker: ado-ado)

pKd	Binder
4.47	B1
below the threshold	B2

molecular target: PICK1, Q9NRD5; assay: holdup assay; set-up: key: below the threshold = too weak to quantify, mostly under pKd 3.1 to 4; settings: plain residues with an end cap or a label only (N-terminal biotin on a linker: ado-ado)
Sequence (Q9NRD5 17-115): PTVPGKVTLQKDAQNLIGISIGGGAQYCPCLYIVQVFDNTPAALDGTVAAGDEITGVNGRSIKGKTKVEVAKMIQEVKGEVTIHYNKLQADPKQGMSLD

pKd	Binder
below the threshold	B1
4.2	B2

molecular target: PTPN3, P26045; assay: holdup assay; set-up: key: below the threshold = too weak to quantify, mostly under pKd 3.1 to 4; settings: plain residues with an end cap or a label only (N-terminal biotin on a linker: ado-ado)
Sequence (P26045 505-587): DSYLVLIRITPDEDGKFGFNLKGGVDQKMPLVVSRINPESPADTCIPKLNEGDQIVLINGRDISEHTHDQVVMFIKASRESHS

pKd	Binder
4.74	B1
4.79	B2

molecular target: SCRIB_1, Q14160; assay: holdup assay; set-up: key: below the threshold = too weak to quantify, mostly under pKd 3.1 to 4; settings: plain residues with an end cap or a label only (N-terminal biotin on a linker: ado-ado)
Sequence (Q14160 718-814): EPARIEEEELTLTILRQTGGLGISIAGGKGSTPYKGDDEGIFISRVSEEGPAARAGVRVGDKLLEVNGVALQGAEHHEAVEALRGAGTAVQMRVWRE

pKd	Binder
4.2	B1
4.07	B2

molecular target: SCRIB_3, Q14160; assay: holdup assay; set-up: key: below the threshold = too weak to quantify, mostly under pKd 3.1 to 4; settings: plain residues with an end cap or a label only (N-terminal biotin on a linker: ado-ado)
Sequence (Q14160 999-1103): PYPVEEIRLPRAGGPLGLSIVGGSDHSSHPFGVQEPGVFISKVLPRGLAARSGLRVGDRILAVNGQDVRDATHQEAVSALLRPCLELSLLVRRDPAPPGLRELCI

pKd	Binder
4.44	B1
4.38	B2

molecular target: T8, SNTG1, Q9NSN8; assay: holdup assay; set-up: key: below the threshold = too weak to quantify, mostly under pKd 3.1 to 4; settings: plain residues with an end cap or a label only (N-terminal biotin on a linker: ado-ado)

pKd	Binder
below the threshold	B1
4.31	B2

molecular target: T9, SNTG2, Q9NY99; assay: holdup assay; set-up: key: below the threshold = too weak to quantify, mostly under pKd 3.1 to 4; settings: plain residues with an end cap or a label only (N-terminal biotin on a linker: ado-ado)

pKd	Binder
4.81	B1
4.16	B2

molecular target: TJP1_3, Q07157; assay: holdup assay; set-up: key: below the threshold = too weak to quantify, mostly under pKd 3.1 to 4; settings: plain residues with an end cap or a label only (N-terminal biotin on a linker: ado-ado)
Sequence (Q07157 416-512): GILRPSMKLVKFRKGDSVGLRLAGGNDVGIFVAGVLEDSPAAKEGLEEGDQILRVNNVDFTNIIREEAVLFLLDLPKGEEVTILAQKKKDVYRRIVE

pKd	Binder
below the threshold	B1
3.69	B2
